Test: yeast display, Sf9 membrane polyspecificity reagent, FACS + sequencing; frameworks hold sequencing errors
In short: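 Galactose-induced (36–48 hours) yeast carrying a synthetic nanobody display library were exposed to 10% biotinylated, detergent-solubilized Sf9 membrane reagent at 4 °C for 1 hour. FACS followed streptavidin microbead enrichment, using low and high (top ~1%) gates for expression (anti-HA) and reagent binding (streptavidin). Colony PCR, MiSeq 2 × 250 sequencing and CDR-length filtering followed. Labels for polyreactivity reflect the gate of origin.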

Row | Sequence | polyreactivity (PSR sort gate)
1 | QVQLVESGGGLVQAGGSLRLSCAASGRIFSQNAMGWYRQAPGKEREVVAVISRGGSTNYADSVKGRFTISRDNAKNTVYLQMNSLKPEDTAVYYCAADYAYIRSVWKWFIGDYWGQGTQVTVSS | low polyreactivity
2 | QVQLVESGGGLVQAGGSLRLSCAASGRIFSQYAMGWNRQAPGKERELVAAITWRGASTYYADSVKGRFTISRDNAKNTVYLQMNSLKPEDTAVYYCAAGYPQGRYYRVRWVGYWGQGTQVTVSS | high polyreactivity
3 | QVQLVESGGGLVQAGGSLRLSCAASGRIFSQYAMGWYRQAPGKERELVAAISRRTGSTYYADSVKGRFTISRDNAKNTVYLQMNSLKPEDTAVYYCNKARLGWSYRQDDYWGQGTQVTVSS | high polyreactivity
4 | QVQLVESGGGLVQAGGSLRLSCAASGRIFSRNAMGWYRQAPGKERELVAAISSSAGSTYYADSVKGRFTISRDNAKHTVYLQMNSLKPEDTAVYYCGAESVGDMDYWGQGTQVSVSS | low polyreactivity
5 | QVQLVESGGGLVQAGGSLRLSCAASGRIFSRNAMGWYRQAPGKERELVAAITRRGGSTYYADSVKGRFTISRDNAKNTVYLQMNSLKPEDTAVYYCATVTYSGSVDYDYWGQGTQVTVSS | high polyreactivity
6 | QVQLVESGGGLVQAGGSLRLSCAASGRIFSRNDMGWYRQSPGKERELVAAITRIGGSTYYADSVKGRITISRDNAKNTVYLQMNSLKPEDNAVYYCAARGSGKYGWGQGSQVTVSS | high polyreactivity
7 | QVQLVESGGGLVQAGGSLRLSCAASGRIFSRNTMGWYRQAPGKERELVATITSAGSTTYADSVKGRFTISRDNAKNTVYLQMNRLKPEDTAVYYCAARSWKRRVGRDYWGQGTQVTVSS | high polyreactivity
8 | QVQLVESGGGLVQAGGSLRLSCAASGRIFSRYAMGWYRKAPGKERELVAAITQSGTSTYYADSVKGRFTFSRDNAKNTVYLQMNCLKPEDTAVYYCNAYRQYRYDYWGQGTQVTVSS | low polyreactivity
9 | QVQLVESGGGLVQAGGSLRLSCAASGRIFSRYAMGWYRQAPGKERELDAAINKSGGSTYYADSVKGRFTISRDNAKHTVYLQMNSLKPEDTAVYYCAADGRLRGYGYWGQGTQVTVSS | high polyreactivity
10 | QVQLVESGGGLVQAGGSLRLSCAASGRIFSRYAMGWYRQAPGKERELVAAINKSGGSTYYADSVKGRFTISRDNAKNTVYLQMNSLKPEDTAVYYCNAVYYYGRRRYGYWGQGTQVTVSS | high polyreactivity
11 | QVQLVESGGGLVQAGGSLRLSCAASGRIFSRYAMGWYRQAPGKERELVAAINKSGGSTYYADSVKGRFTISRDNEKYTVYLQMNSLKPEDTAVDYCNAVYYWYKGDYWGQGTQVTVSS | high polyreactivity
12 | QVQLVESGGGLVQAGGSLRLSCAASGRIFSRYAMGWYRQAPGKERELVAAISWSGGSTYYADSVKGRFTISRDNAKNNVYLQMNSLKPEDTAVYYCAARRSYSYGSWGQGTQVTVSS | high polyreactivity
13 | QVQLVESGGGLVQAGGSLRLSCAASGRIFSRYAMGWYRQAPGKERELVAVISRSGADTYYADSVKGRFTISRDNAKNTVYLQMNSLKPEDTAVFYCNAYSARRPHPMCYDSWGQGTQVTVSS | high polyreactivity
14 | QVQLVESGGGLVQAGGSLRLSCAASGRIFSRYTMGWYRQAPGKERELVAAISRRGGSTNYADSVKGRFTISRDNAKNTVYLQMNSLKPEDTAVYYCAAHGPFVRSQSLRSGRFDYWGQGTQVTVSS | high polyreactivity
15 | QVQLVESGGGLVQAGGSLRLSCAASGRIFSRYTMGWYRQAPGKERELVAAISYRGGSTYYADSVKGRFTISRDNAKNTVYLQMNSLKPEDTAVYYCAARVQAIYRYDYWGQGTQVTVSS | high polyreactivity
16 | QVQLVESGGGLVQAGGSLRLSCAASGRIFSRYVMGWYRQAPGKERELVAAITRNGGNTYYADSVTGRFTISRDNAKNTVYLQMNSLKPEDTAVYYCAGRAVLKSWAYYYWGQGTQVTVSS | high polyreactivity
17 | QVQLVESGGGLVQAGGSLRLSCAASGRIFSSKAMGWYRQAPGKERELVAAISWIVGRTYYADSVKGRFTISRDNAKNTVYLQMNSLIPEATAVYYCAKGSYYVRNRGWGYDYWGQGTQVTVSS | high polyreactivity
18 | QVQLVESGGGLVQAGGSLRLSCAASGRIFSSNAMGWYRQAPGKERELVASINRGDRTYYADSVKGRFTISRDNAKNTVYLQMNSLKPEDTAVYYCAAARTYGKKYGYWGQGTQVTVSS | high polyreactivity
19 | QVQLVESGGGLVQAGGSLRLSCAASGRIFSSYAMGWYRQAPGKERELVAAIRYDAGSTYYADSVKGRFTISRDHAKNTVYLQMNSLKPEDTAVYYCAARIYFEQWSWYGYWGQGTQVTVSS | high polyreactivity
20 | QVQLVESGGGLVQAGGSLRLSCAASGRIFSSYTMGWYRQAPGKERELVATITLRGGRTYYADSVKGRFTISRDNAKNTVYLQMNSLKPEDTAVYYCAATYLTYYHRFNYWGQGTQVTVSS | high polyreactivity
21 | QVQLVESGGGLVQAGGSLRLSCAASGRIFSTNAMGWYRQAPAKERELVAAITRGVSTKYADSVKRRFTISRDNAKNTVYLQMNSLKPEDTAVYYCAASVVWGPESDYWGQGTQVTVSS | low polyreactivity
22 | QVQLVESGGGLVQAGGSLRLSCAASGRIFSTYTMGWYRQAPGKERELVAAIRANGGSTYYADSVKGRFTISRDNAKNTVYLQMNSLKPEVTAVYYCNARRPIGTGYYWGQGTQVTVSS | high polyreactivity
23 | QVQLVESGGGLVQAGGSLRLSCAASGRIFSTYVMGCYRQAPGKERELVAAITRGGSTNYADSVKGRFTISRDNAKNTVYLQMNSLKPEDTAVYYCNAQRRGTYYLGQGTQVTVSS | high polyreactivity
24 | QVQLVESGGGLVQAGGSLRLSCAASGRIFSTYVMGWYRQAPGKERELVAAIRNRGGSTYYADSVKGRFTISRDNAKNTVYLQMNSLKPEDTAVFYCAAEYSYRYRVSMDYWGQGTQVTVSS | high polyreactivity
25 | QVQLVESGGGLVQAGGSLRLSCAASGRIFSTYVMGWYRQAPGKERELVAAITWSGGSTYYADSVKGRFTISRDTAQNTVYLQMNTLKPEDTAVYYCAADEIYGYDYWGQGTQVTVSS | high polyreactivity
26 | QVQLVESGGGLVQAGGSLRLSCAASGRIFSVNAMGWYRQAPGKERELVAAITPGASTNYADSVKGRFTISRDNAKNTVYLQMNSLKPEDTAVYYCAAGWVSFEDWVLGSYYEYDYWGQGTQVTVSS | low polyreactivity
27 | QVQLVESGGGLVQAGGSLRLSCAASGRIFSVNAMGWYRQAPGKERELVAAITSGGRTNYADSVKGRFTISRDNAKNTFYLQMNSLKPEDTAVYYCAAPYLKGGEDDYWGQGTQVTVSS | high polyreactivity
28 | QVQLVESGGGLVQAGGSLRLSCAASGRIFSVYAMGWYRQAPGKEREFVASISWRGGRTYYADSVKGRFTISRDNAKNTVYLQMNSLKPEDTAVYYCAAVSYPAVYGFDYWGQGTQVTVSS | high polyreactivity
29 | QVQLVESGGGLVQAGGSLRLSCAASGRIFSVYAMGWYRQAPGKERELVAAITNGGRTNYADSVKGRFTISRDNAKNTVYLQMNSLKPEDTAVYYCATDPVKSGYQRYYYWGQGTQVTVSS | low polyreactivity
30 | QVQLVESGGGLVQAGGSLRLSCAASGRIFSVYDMGWYRQAPGKERELVAAIDTSDGSTNYADSVTGRFTISRDNAKNTVYLQMNSLKPEDTAVYYCNATDSYVPFDYWGQGTQVTVSS | low polyreactivity

From the nanobody polyreactivity screen of Harvey et al. (2022)
